The test addresses Tumor necrosis factor alpha (TNF-α) (Homo sapiens, UniProt P01375). Briefly: SPR. On the technique in general: In SPR one partner is held on a chip, and binding of the other changes the refractive index at the surface.

Our source for the Kd values is publication PMC9822835 (Computational and Structural Biotechnology Journal, 2022).

What is called Kd is the equilibrium constant for the complex coming apart.

Sequence of Tumor necrosis factor alpha (TNF-α) (P01375 whole entry): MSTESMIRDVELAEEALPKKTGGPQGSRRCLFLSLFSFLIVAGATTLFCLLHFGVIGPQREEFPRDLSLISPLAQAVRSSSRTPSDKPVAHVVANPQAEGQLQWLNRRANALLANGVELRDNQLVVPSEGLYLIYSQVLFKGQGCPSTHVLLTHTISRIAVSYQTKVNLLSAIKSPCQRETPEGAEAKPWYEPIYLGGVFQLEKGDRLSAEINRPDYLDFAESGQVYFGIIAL

B1: VHH2^E50V&T53W (VHH)
VHH: QVQLVESGGGLVQPGGSLRLSCAASGFTFSNYWMYWVRQAPGKGLEWVSVINWNGLITKYPDSVKGRFTISRDNAKNTLYLQMNSLKPEDTALYYCARSPSGFNRGQGTQVTVSS
For B1, binding was put at a Kd of 4.6 nM.
